Measurements reported in patent US20030082175A1 (Biogen, published 2003).

B1: FLAG-human APRIL (ligand)
chain: DYKDDDDKGPGQVQLQKQKKQHSVLHLVPINATSKDDSDVTEVMWQPALRRGRGLQAQGYGVRIQDAGVYLLYSQVLFQDVTFTMGQVVSREGQGRQETLFRCIRSMPSHPDRAYNSCYSAGVFHLHQGDILSVIIPRARAKLNLSPHGTFLGFVKL
notes: Made from plasmid ps429 (p1448) in 293T cells; also called FLAG-hAPRIL; FLAG-h APRIL
B2: hTRAIN-Fc (Fc fusion, human, UniProt Q9NS68 30-170, looked up)
chain: ESGDCRQQEFRDRSGNCVPCNQCGPGMELSKECGFGYGEDAQCVTCRLHRFKEDWGFQKCKPCLDCAVVNRFQKANCSATSDAICGDCLPGFYRKTKLVGFQDMECVPCGDPPPPYEPHCASKVNLVKIASTASSPRDTAL
notes: not shown: Fc part

How the values were obtained:
hCD40-Fc = molecular target: T1, hCD40-Fc (human, UniProt P25942 21-193, limits assumed); test: ELISA, receptor-Fc coated, FLAG-tagged ligand detected with anti-FLAG M2
T1 construct: not shown: Fc part

FLAG-hBAFF = molecular target: T2, FLAG-hBAFF (human, UniProt Q9Y275 136-285, limits assumed); test: immunoprecipitation from conditioned media with ProtG-Sepharose, anti-FLAG M2 blot
T2 construct: also called hKayL-440 (hBAFF); hKayL-440; not shown: FLAG tag
Protocol: (§1) Immunoprecipitation experiments: 293T cells were transfected with indicated expression plasmid (Rec-Fc or flag ligand) in 9 cm plate. Transfected cells were left for 5d in 8 ml Optimem media (Gibco-BRL). Immunoprecipitation were performed by mixing 200 ul of each receptor-conditioned media with 200 ul of each ligand-conditioned media+400 ul PBS+10 ul ProtG-Sepharose. These were rotated 1 h on a wheel, washed 4× with 1 ml PBS, then boiled in 50 ul sample buffer (+DTT). 20 ul of each immunoprecipitation was loaded per lane. Reveal blotting was done with 1 ug/ml anti-FLAG M2 mAb (Sigma, St Louis Mo.) and anti-mouse PO (1/2000). A reprobe blot with anti-human-PO was also checked: 100 ul conditioned media was precipitated with MeOH/CHC13/lysozyme. This mix was boiled in 50 ul sample buffer (+DTT) and 20 ul was loaded. A Reveal blot was performed with anti-FLAG mAb M2 (1 ug/ml) and anti-mouse-PO (1/2000).

FLAG-human APRIL = molecular target: B1; test: as above
Protocol: as §1

T1 sequence (P25942 21-193 limits assumed): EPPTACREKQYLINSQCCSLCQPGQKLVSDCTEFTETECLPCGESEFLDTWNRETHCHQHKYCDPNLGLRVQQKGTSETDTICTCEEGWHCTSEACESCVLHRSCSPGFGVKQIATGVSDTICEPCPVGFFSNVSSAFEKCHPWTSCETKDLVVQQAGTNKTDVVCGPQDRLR
T2 sequence (Q9Y275 136-285 limits assumed): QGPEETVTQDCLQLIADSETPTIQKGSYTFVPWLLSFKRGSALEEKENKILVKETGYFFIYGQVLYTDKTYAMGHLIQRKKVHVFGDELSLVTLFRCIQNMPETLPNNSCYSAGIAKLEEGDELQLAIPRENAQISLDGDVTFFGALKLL

binding result (hCD40-Fc)	binding result (FLAG-hBAFF)	binding result (FLAG-human APRIL)	Binder
no binding			B1
	no binding	no binding	B2
